# Results taken from paper PMC10554743.
# Legend:
# [1] = target: McdB with four glutamine substitutions in the CTD; experiment: SEC-MALS
# [2] = target: McdB with four glutamine substitutions in the CTD; experiment: SEC-MALS; remark: listed apart in the source
# [3] = target: McdB with all six basic residues of the IDR substituted to glutamines; experiment: SEC-MALS
# [4] = target: McdB CC + CTD truncation (Synechococcus elongatus PCC 7942); experiment: SEC-MALS; Shodex PROTEIN KW-804; 50 µl at 1.5 mg/ml; 150 mM KCl, 20 mM Tris-HCl pH 8.2; BSA as calibration standard
# [5] = target: McdB IDR + CC truncation (Synechococcus elongatus PCC 7942); experiment: as above
# [6] = target: Se7942 McdB (full-length, wild type) (Synechococcus elongatus PCC 7942); experiment: as above
# [7] = target: McdB with all six basic residues of the IDR substituted to glutamines (Synechococcus elongatus PCC 7942); experiment: as above
# [8] = target: McdB CC domain truncation (Synechococcus elongatus PCC 7942); experiment: as above
# McdB CTD 2Q left = experiment: SEC-MALS
substance,measurement,setting,value
"Se7942 McdB (full-length, wild type) CTD all: … -> … (E->Q, E->Q, E->Q, D->Q at segment positions 1, 2, 9, 11)",other: multiple (oligomer MW over monomer MW),[1]; parent: 5.5,1.8 x
same,other: oligomer MW (SEC-MALS),[1]; parent: 96.4,31.8 kDa
same,other: multiple (oligomer MW over monomer MW),[2]; parent: 5.5,1.8 x
same,other: oligomer MW (SEC-MALS),[2]; parent: 96.4,31.8 kDa
"Se7942 McdB (full-length, wild type) R7Q; K9Q; K10Q; R11Q; R13Q; R18Q",other: multiple (oligomer MW over monomer MW),[3]; parent: 5.5,5.6 x
same,other: oligomer MW (SEC-MALS),[3]; parent: 96.4,96.1 kDa
McdB CC + CTD truncation (domain or fragment),stoichiometry N,[4],6
McdB IDR + CC truncation (domain or fragment),stoichiometry N,[5],2
"Se7942 McdB (full-length, wild type) (natural protein)",stoichiometry N,[6],6
McdB with all six basic residues of the IDR substituted to glutamines (natural protein),stoichiometry N,[7],6
McdB CC domain truncation (domain or fragment),stoichiometry N,[8],2
"Se7942 McdB (full-length, wild type) CTD 2Q left: … -> … (E->Q, E->Q at segment positions 1, 2)",other: multiple (oligomer MW over monomer MW),McdB CTD 2Q left; parent: 5.5,4.5 x
same,other: oligomer MW (SEC-MALS),McdB CTD 2Q left; parent: 96.4,77.8 kDa
